Measurements taken from PMC6677593 (Molecular cancer therapeutics, 2019).

What was measured:
[1] = target: LIFR labelled with fluorescent dye (MST target) (UniProt P42702 45-1097, fluorescent dye, NHS chemistry); assay: MST
Human LIFR-Fc = target: T1, Human LIFR-Fc (human, UniProt P42702 45-833); assay: SPR
T1 sequence (looked up): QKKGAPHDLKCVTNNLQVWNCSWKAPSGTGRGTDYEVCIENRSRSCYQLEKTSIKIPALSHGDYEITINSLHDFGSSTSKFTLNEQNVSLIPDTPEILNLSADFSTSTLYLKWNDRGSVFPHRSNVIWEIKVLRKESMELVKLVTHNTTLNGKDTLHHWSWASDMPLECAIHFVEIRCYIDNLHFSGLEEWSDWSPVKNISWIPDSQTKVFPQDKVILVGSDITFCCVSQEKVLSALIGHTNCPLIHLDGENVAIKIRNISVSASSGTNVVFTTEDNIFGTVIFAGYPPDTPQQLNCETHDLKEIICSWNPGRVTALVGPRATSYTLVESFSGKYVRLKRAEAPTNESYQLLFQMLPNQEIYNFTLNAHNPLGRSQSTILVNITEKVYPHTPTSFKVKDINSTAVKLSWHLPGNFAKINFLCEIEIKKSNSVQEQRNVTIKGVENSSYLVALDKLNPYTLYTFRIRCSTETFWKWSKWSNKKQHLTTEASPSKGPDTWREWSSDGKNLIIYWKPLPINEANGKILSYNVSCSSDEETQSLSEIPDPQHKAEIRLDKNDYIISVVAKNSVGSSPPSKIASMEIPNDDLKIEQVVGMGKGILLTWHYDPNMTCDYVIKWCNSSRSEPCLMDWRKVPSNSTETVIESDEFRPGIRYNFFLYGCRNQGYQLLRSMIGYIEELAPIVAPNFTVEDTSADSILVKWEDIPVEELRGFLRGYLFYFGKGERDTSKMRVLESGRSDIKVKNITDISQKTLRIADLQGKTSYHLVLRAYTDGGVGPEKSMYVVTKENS

Kd [1]: 0.00136 µM
Kd (Human LIFR-Fc): 7 µM
B1: Recombinant human leukemia inhibitory factor (LIF) (ligand)
chain: not shown
